{
  "source": "paper PMC3315512",
  "about": "“The Lid Domain of Caenorhabditis elegans Hsc70 Influences ATP Turnover, Cofactor Binding and Protein Folding Activity” (PLoS ONE, 2012)",
  "binders": {"B1": {"name": "DNJ-13 (C. elegans, unlabelled) (natural protein)", "chain": "not shown"}, "B2": {"name": "BAG-1 (C. elegans, unlabelled) (natural protein, UniProt O44739 1-210, looked up)", "chain": "MKVNVSCSSVQTTIDILEENQGEDESILTLGQLRDRIATDNDVDVETMKLLHRGKFLQGADDVSLSTLNFKENDKIIVMGGKNALVDDAGFKMLMQYEKHNLSNLQKAYDLNLRDVADLERGFLEKPKQVEMGKKLEKKVKYFNEEAERHLETLDGMNIITETTPENQAKRNREKRKTLVNGIQTLLNQNDALLRRLQEYQSVLNGDIPE", "notes": "BAG-1, nucleotide exchange factor of C. elegans, full-length, cloned from a C. elegans cDNA preparation; a His tag is surmised from the HisTrap column; also called nematodal BAG-1; source: E. coli BL21-CodonPlus (DE3)-RIL, purified (HisTrap, ResourceQ, Superdex 75)"}, "B3": {"name": "*DNJ-13 (C. elegans DNJ-13 labelled with carboxyfluorescein) (natural protein)", "chain": "not shown", "modifications": "5-(and-6)-carboxyfluorescein succinimidylester, preferential labeling at the N-terminal amine group (labelling efficiency 1.2)", "notes": "DNJ-13, Hsp40-like J-domain protein of C. elegans (Sis1 / DNAJB homolog); also called fluorescently labeled DNJ-13; source: E. coli BL21-CodonPlus (DE3)-RIL, purified (HisTrap, ResourceS, Superdex 75), then labelled"}},
  "key": {"[1]": {"target": "T1, His6-CeHsc70 (Caenorhabditis elegans Hsc70, HSP-1) (C. elegans, UniProt P09446 1-640)", "T1 sequence (P09446 whole entry)": "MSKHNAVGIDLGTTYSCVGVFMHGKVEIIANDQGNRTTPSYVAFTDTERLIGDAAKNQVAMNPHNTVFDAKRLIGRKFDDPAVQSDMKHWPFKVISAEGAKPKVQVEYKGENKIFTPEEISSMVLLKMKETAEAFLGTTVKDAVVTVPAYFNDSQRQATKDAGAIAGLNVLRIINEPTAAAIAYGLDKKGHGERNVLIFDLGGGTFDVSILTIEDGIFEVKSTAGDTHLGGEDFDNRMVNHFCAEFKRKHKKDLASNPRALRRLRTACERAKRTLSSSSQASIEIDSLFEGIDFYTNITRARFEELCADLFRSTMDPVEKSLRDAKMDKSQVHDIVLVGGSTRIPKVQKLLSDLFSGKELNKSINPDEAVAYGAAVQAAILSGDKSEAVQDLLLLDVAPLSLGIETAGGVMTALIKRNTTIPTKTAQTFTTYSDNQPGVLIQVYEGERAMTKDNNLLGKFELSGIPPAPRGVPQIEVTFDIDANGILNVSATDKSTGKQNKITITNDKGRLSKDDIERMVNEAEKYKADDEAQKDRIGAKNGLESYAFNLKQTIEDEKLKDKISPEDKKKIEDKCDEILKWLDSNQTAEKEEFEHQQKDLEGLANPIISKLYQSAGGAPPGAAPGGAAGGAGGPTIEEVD", "assay": "cell-based or functional assay"}, "[2]": {"target": "T1, His6-CeHsc70 (Caenorhabditis elegans …)", "assay": "AUC; competition: 15 µM BAG-1 added to 300 nM *DNJ-13, 3 µM CeHsc70 and 4 mM ATP; sedimentation velocity with fluorescence detection; dc/dt analysis", "settings": "both partners purified"}, "[3]": {"target": "the molecule itself", "assay": "AUC; sedimentation velocity with fluorescence detection, 300 nM *DNJ-13 alone, 20°C, 42 000 rpm; whole boundary fitting and C(s) (UltraScan)"}},
  "data": [
    {"binder": "B1", "values": [
      {"measurement": "apparent KD of DNJ-13 from titration of the steady-state ATPase activity of 1 µM CeHsc70 in the presence of 2 µM BAG-1, standard buffer, 25°C", "setting": "[1]", "result": 6.8, "unit": "µM"}
    ]},
    {"binder": "B2", "values": [
      {"measurement": "binding result", "setting": "[2]", "result": "binds"}
    ]},
    {"binder": "B3", "values": [
      {"measurement": "stoichiometry N", "setting": "[3]", "result": 2}
    ]}
  ]
}
